From US6846645B2, “Multiplexed enzymatic assays” (Aclara Biosciences, Inc., priority 2000, dated 2005)

Legend:
Receptor II kinase [1] = assay: Receptor II assay: ligand enhancement of receptor II kinase activity; type: biochemical; conditions: saturating (high) ligand concentrations, 25 μM substrate, fixed amount of receptor II
Protocol: (§1) Before adding kinase substrate, incubate the mixture for 5 min to activate receptor II kinase by binding to insulin β. The incubation was done at room temperature for 30 min. Either 10 μL of 200 mM EDTA is added or the sample is frozen to stop the reaction before analysis. For the frozen sample, analysis was performed immediately after thawing the samples.
Analysis was done on a modified Henry chip with 5 mm effective separation length. The injection was performed by applying 400 V at well #2 for 45 s while grounding other wells. The separation conditions are: 0 V for Well #1, 400 V for well #2 and 4, 700 V for well #3.
As another example, receptor II (an insulin-related receptor) was studied in connection with insulin-like growth factor (IGF). A significant enhancement (>4 fold) in receptor II kinase activity was observed. Other ligands tested include insulin, insulin α and β chain. Both insulin and insulin β chain stimulated this receptor kinase activity by as much as 20 fold when a high concentration was used (Table 2). […] For this experiment, 25 μM substrate was used with a fixed amount of receptor II and various amounts of ligands to ensure a saturated binding between receptor and ligand.

Receptor II kinase [2] = assay: Screening assay for competitive inhibitors: competition between insulin β chain and EGF, monitored by receptor II kinase activity; type: biochemical
Protocol: as §1, with “samples. Analysis was done on a modified Henry chip with 5 mm effective separation length. The injection was performed by applying 400 V at well #2 for 45 s while grounding other wells. The separation conditions are: 0 V for Well #1, 400 V for well #2 and 4, 700 V for well #3.” for “samples.”

extent of competition with activating ligand (Receptor II kinase [2]; higher insulin β concentration (15 μM), FIG. 14A)	extent of competition with activating ligand (Receptor II kinase [2]; lower insulin β chain concentration of 3 μM, FIG. 14B)	IC50 (Receptor II kinase [2]; read-out: IC50 of EGF competing with insulin β chain activation of receptor II kinase, insulin β chain at 3 μM and 15 μM, fixed receptor concentration) [nM]	Substance	Receptor II Kinase Activity Enhancement (fold) (Receptor II kinase [1])	Receptor II Kinase Activity Enhancement (fold) (Receptor II kinase [1]; listed as Insulin α chain)
–	–	–	Insulin β chain	>20 fold	–
–	–	–	insulin	>20 fold	–
did not show complete competition	near complete competition	200 to 300	Epidermal growth factor [EGF]	–	–
–	–	–	Insulin α chain	˜3 fold	about 3 fold
